# Reference: patent US6693076
# Experiments:
# [1] = molecular target: IGF-I receptor in homogenized adult rat brain tissue (cerebral cortex and cerebellum) (rat) (UniProt P24062); assay: displacement of 20 pM 125I-[Thr59]IGF-I from homogenised rat brain tissue; competitor at 100 µM; SD 21
# [2] = molecular target: 125I-[Threonine59]IGF-I binding sites in adult rat brain sections (level of the cerebellum and brain stem) (rat); assay: displacement of 0.01 nM 125I-[Thr59]IGF-I from rat brain sections; competitor at 400 nM
# [3] = molecular target: IGF-I receptor in homogenized adult rat brain tissue (cerebral cortex and cerebellum) (rat) (UniProt P24062); assay: displacement of 20 pM 125I-[Thr59]IGF-I from homogenised rat brain tissue; competitor at 40 nM; SD 0.7
# [4] = molecular target: 125I-[Threonine59]IGF-I binding sites in adult rat brain sections (level of the cerebellum and brain stem) (rat); assay: displacement of 0.01 nM 125I-[Thr59]IGF-I from rat brain sections; competitor at 200 nM
# [5] = molecular target: IGF-I receptor in homogenized adult rat brain tissue (cerebral cortex and cerebellum) (rat) (UniProt P24062); assay: displacement of 20 pM 125I-[Thr59]IGF-I from homogenised rat brain tissue; competitor at 100 µM; SD 1.4
# [6] = molecular target: 125I-[Threonine59]IGF-I binding sites in adult rat brain sections (level of the cerebellum and brain stem) (rat); assay: displacement of 0.01 nM 125I-[Thr59]IGF-I from rat brain sections; competitor at 4 pM
# [7] = molecular target: 125I-[Threonine59]IGF-I binding sites in adult rat brain sections (level of the cerebellum and brain stem) (rat); assay: displacement of 0.01 nM 125I-[Thr59]IGF-I from rat brain sections; competitor at 400 pM
# [8] = molecular target: IGF-I receptor in homogenized adult rat brain tissue (cerebral cortex and cerebellum) (rat) (UniProt P24062); assay: displacement of 20 pM 125I-[Thr59]IGF-I from homogenised rat brain tissue; competitor at 1 mM; SD 1.8
# [9] = molecular target: IGF-I receptor in homogenized adult rat brain tissue (cerebral cortex and cerebellum) (rat) (UniProt P24062); assay: displacement of 20 pM 125I-[Thr59]IGF-I from homogenised rat brain tissue; competitor at 100 µM; SD 20
# [10] = molecular target: IGF-I receptor in homogenized adult rat brain tissue (cerebral cortex and cerebellum) (rat) (UniProt P24062); assay: displacement of 20 pM 125I-[Thr59]IGF-I from homogenised rat brain tissue; competitor at 100 µM; SD 6
# Chain of IGF-I receptor in homogenized adult rat brain tissue (cerebral cortex and cerebellum) (rat) (P24062 31-1370): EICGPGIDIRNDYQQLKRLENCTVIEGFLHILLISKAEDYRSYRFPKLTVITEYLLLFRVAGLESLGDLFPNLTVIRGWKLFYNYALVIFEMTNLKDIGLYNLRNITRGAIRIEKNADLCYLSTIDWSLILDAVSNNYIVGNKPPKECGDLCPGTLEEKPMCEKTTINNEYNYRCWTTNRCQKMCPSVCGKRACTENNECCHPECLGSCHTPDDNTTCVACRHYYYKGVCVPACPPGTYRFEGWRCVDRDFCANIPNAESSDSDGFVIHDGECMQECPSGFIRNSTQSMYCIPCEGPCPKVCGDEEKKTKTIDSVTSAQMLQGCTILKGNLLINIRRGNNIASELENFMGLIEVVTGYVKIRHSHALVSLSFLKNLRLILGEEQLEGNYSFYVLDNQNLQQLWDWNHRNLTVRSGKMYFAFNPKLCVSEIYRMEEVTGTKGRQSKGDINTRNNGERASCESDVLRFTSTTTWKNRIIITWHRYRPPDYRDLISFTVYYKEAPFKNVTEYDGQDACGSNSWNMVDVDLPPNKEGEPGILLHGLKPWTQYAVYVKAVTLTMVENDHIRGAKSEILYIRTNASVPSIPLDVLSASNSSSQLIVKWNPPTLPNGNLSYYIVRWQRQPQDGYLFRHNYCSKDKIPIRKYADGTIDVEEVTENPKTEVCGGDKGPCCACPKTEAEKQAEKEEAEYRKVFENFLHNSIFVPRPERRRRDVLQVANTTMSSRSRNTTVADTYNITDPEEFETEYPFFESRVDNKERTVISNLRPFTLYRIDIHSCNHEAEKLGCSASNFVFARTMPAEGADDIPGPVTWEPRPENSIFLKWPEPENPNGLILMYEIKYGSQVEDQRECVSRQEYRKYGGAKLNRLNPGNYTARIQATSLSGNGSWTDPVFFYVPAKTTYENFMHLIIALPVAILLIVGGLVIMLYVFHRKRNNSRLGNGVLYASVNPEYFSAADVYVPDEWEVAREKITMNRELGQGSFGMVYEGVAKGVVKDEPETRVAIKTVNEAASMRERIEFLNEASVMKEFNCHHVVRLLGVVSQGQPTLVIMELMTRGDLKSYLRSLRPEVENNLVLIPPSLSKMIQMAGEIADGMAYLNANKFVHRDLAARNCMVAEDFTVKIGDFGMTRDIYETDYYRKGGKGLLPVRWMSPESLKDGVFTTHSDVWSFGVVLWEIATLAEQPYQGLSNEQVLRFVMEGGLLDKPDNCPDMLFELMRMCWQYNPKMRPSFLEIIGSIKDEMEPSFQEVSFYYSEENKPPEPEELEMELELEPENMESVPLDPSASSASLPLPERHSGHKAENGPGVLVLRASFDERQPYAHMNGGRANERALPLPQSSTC
# Chain of IGF-II (Somatomedin-A) (P01344 25-91): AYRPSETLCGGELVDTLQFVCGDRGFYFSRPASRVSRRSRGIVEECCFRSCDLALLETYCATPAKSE
substance,measurement,setting,value
IGF-II(62-67) (peptide),percent max. bound,[1],83%
IGF-II (Somatomedin-A) (from UniProt P01344 25-91) (ligand),percent max. bound,[2],23%
same,percent max. bound,[3],92.1%
same,percent max. bound,[4],50%
IGF-I(30-41) (peptide),percent max. bound,[5],94%
Human IGF-I (Somatomedin-C) (from UniProt P05019 49-118) (ligand),percent max. bound,[6],91%
same,percent max. bound,[7],30%
IGF-II(33-40) (peptide),percent max. bound,[8],92%
IGF-I(62-70) (peptide),percent max. bound,[9],83%
IGF-II(54-67) (peptide),percent max. bound,[10],94%
